Biological target: Human FcRn, biotinylated (human, UniProt P55899 24-297; P61769 21-119)

B1: Ab2-7 scFv-Fc (Fc fusion)
chain 1: QVTLKESGPTRVKPTQTLTLTCTFSGFSLSTTGVGVGWIRQPPGKALEWLALIYWNDDKRYSPSLKSRLTITKDTSKNQVVLTMTNMDPVDTATYYCARISGSGYFYPFDIWGQGTTVTVSS
chain 2: NFMLTQPHSVSESPGKTVTISCTRSSGSIASNYVQWYQQRPGSSPTTVIYEDNQRPSGVPDRFSGSIDSSSNSASLTISGLKAEDEADYYCQSYDSSSLWVFGGGTKLTVL
Work on B1 yielded a Kd of 11.7 nM, a koff of 0.00198 s⁻¹ and a kon of 169000 M⁻¹ s⁻¹.
